Test results reported in patent US20060024289.
Where “and” joins values, the source holds several entries; their conditions need not be identical. Identical values can stand only once.

T1: Ac-IEPD-AMC
T1 sequence: XIEPDX

T2: Ac-RRVR-AMC
T2 sequence: RRVR

T3: Ac-RQAR-AMC
T3 chain: RQAR

T4: extracellular domain of VEGF-R2 (Flk1) fused to the Fc domain of mouse IgG
T4 chain: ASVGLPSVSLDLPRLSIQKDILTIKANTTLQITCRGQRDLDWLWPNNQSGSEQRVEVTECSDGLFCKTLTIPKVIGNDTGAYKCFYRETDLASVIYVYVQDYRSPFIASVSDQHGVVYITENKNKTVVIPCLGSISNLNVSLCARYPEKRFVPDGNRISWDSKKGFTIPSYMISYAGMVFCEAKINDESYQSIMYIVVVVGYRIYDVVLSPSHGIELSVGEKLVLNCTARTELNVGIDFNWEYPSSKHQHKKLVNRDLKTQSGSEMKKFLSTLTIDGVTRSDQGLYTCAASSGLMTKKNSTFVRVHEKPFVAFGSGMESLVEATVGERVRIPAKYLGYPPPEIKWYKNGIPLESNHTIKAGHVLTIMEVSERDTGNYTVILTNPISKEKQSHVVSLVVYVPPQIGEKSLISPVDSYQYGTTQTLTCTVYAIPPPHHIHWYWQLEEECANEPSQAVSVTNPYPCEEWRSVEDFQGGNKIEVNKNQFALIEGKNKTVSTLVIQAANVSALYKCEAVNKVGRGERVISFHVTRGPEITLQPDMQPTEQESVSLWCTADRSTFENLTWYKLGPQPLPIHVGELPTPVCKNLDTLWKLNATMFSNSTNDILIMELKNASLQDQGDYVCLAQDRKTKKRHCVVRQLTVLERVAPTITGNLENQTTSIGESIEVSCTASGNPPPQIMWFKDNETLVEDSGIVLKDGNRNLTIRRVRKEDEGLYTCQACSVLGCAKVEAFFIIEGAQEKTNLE

T5: VEGF165, P15692
T5 chain: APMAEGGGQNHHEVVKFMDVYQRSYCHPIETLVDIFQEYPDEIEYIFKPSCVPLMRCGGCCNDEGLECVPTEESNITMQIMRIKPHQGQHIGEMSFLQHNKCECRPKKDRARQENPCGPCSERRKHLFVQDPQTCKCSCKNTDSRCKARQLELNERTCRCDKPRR

T6: Ac-IEFD-AMC
T6 chain: XIEFDX

T7: Ac-IEPD-AMC
T7 chain: XIEPDX

T8: Ac-LEFD-AMC
T8 chain: XLEFDX

T9: Ac-LEPD-AMC
T9 chain: XLEPDX

T10: Ac-IKPD-AMC
T10 chain: XIKPDX

T11: Ac-IETD-AMC
T11 chain: XIETDX

T12: Ac-IAPD-ACC
T12 chain: XIAPDX


Legend:
[1] = system: T1, Ac-IEPD-AMC
[2] = system: T2, Ac-RRVR-AMC
[3] = target: VEGF165 (UniProt P15692)
[4] = target: T3, Ac-RQAR-AMC
[5] = target: T4, extracellular domain of VEGF-R2 (Flk1) …
[6] = target: T5, VEGF165, P15692
[7] = target: T6, Ac-IEFD-AMC; assay: Michaelis-Menten kinetics of fluorogenic tetrapeptide hydrolysis
[8] = target: T7, Ac-IEPD-AMC; assay: as above
[9] = target: T8, Ac-LEFD-AMC; assay: as above
[10] = target: T9, Ac-LEPD-AMC; assay: as above
[11] = target: T6, Ac-IEFD-AMC
[12] = target: T7, Ac-IEPD-AMC
[13] = target: T8, Ac-LEFD-AMC
[14] = target: T9, Ac-LEPD-AMC
[15] = target: T10, Ac-IKPD-AMC; assay: Michaelis-Menten kinetics of fluorogenic tetrapeptide hydrolysis
[16] = target: T11, Ac-IETD-AMC; assay: as above
[17] = target: T10, Ac-IKPD-AMC
[18] = target: T12, Ac-IAPD-ACC
[19] = target: T11, Ac-IETD-AMC

Row | Molecule | cleavage of purified VEGFR2-Fc (SDS-PAGE) [5] | Km [7] | Km [8] [µM] | Km [9] [µM] | Km [10] [µM] | kcat [11] | kcat/Km [11] [M⁻¹ s⁻¹] | ΔΔGT^‡ [11] [kcal/mol] | in vitro cleavage of soluble Flk1-Fc (gel, FIG. 10) [5] | kcat [12] [s⁻¹] | kcat/Km [12] [M⁻¹ s⁻¹] | ΔΔGT^‡ [12] [kcal/mol] | kcat [13] [s⁻¹] | kcat/Km [13] [M⁻¹ s⁻¹] | ΔΔGT^‡ [13] [kcal/mol] | kcat/Km [14] [M⁻¹ s⁻¹] | ΔΔGT^‡ [14] [kcal/mol] | further results
1 | rat granzyme B R192A | – | – | – | – | – | – | – | – | – | – | – | – | – | – | – | – | – | specificity constant (kcat/Km) [1]: 55 M⁻¹ s⁻¹
2 | MT-SP1 mutein CB152 (F99V/K224F) | – | – | – | – | – | – | – | – | – | – | – | – | – | – | – | – | – | preference of RRVR over RQAR substrate (ratio of kcat/Km) [2]: prefer RRVR to RQAR by greater than 8 fold; cleavage of 5 µM VEGF165 by 100 nM protease, 37° C., five hours (SDS-PAGE, silver stain) [3]: while the more selective variant CB152 does not
3 | wild-type MT-SP1 protease domain (protein) VVGGTDADEGEWPWQVSLHALGQGHICGASLISPNWLVSAAHCYIDDRGFRYSDPTQWTAFLGLHDQSQRSAPGVQERRLKRIISHPFFNDFTFDYDIALLELEKPAEYSSMVRPICLPDASHVFPAGKAIWVTGWGHTQYGGTGALILQKGEIRVINQTTCENLLPQQITPRMMCVGFLSGGVDSCQGDSGGPLSSVEADGRIFQAGVVSWGDGCAQRNKPGVYTRLPLFRDWIKENTGV | The purified VEGFR2-Fc is efficiently cleaved by wild-type and mutant MT-SP1 ... None of the protease variants or wild-type cleave the Fc domain | – | – | – | – | – | – | – | – | – | – | – | – | – | – | – | – | preference of RQAR over RRVR substrate (ratio of kcat/Km) [4]: 2 times; cleavage of purified Flk1-Fc by 1 µM protease (SDS-PAGE, Edman sequencing) [5]: Purified VEGFR2-Fc is cleaved by wild-type and mutant MT-SP1 at the sequence RRVR/KEDE in the extracellular stalk region of the receptor; cleavage of 5 µM VEGF165 by 100 nM protease, 37° C., five hours (SDS-PAGE, silver stain) [6]: MT-SP1 efficiently cleaves VEGF^165 under the assay conditions
4 | rat granzyme B I99A/N218A (protein) IIGGHEAKPHSRPYMAYLQIMDEYSGSKKCGGFLIREDFVLTAAHCSGSKINVTLGAHNIKEQEKMQQIIPVVKIIPHPAYNSKTASNDIMLLKLKSKAKRSSAVKPLNLPRRNVKVKPGDVCYVAGWGKLGPMGKYSDTLQEVELTVQEDQKCESYLKNYFDKANEICAGDPKIKRASFRGDSGGPLVCKKVAAGIVSYGQADGSTPRAFTKVSTFLSWIKKTMKKS | The purified VEGFR2-Fc is efficiently cleaved by wild-type and mutant granzyme B ... None of the protease variants (wild-type or mutant) cleave the Fc domain | 890 µM | 2700 | 1300 | > 2000 | 0.26 s⁻¹ | 290 | -1.33 | Wild-type granzyme B and the listed muteins cleave the VEGFR-Fc receptor | 0.087 | 32 | 0 | 0.047 | 37 | -0.09 | 1.3 | 1.92 | –
5 | wild-type rat granzyme B (protein) IIGGHEAKPHSRPYMAYLQIMDEYSGSKKCGGFLIREDFVLTAAHCSGSKINVTLGAHNIKEQEKMQQIIPVVKIIPHPAYNSKTISNDIMLLKLKSKAKRSSAVKPLNLPRRNVKVKPGDVCYVAGWGKLGPMGKYSDTLQEVELTVQEDQKCESYLKNYFDKANEICAGDPKIKRASFRGDSGGPLVCKKVAAGIVSYGQNDGSTPRAFTKVSTFLSWIKKTMKK | The purified VEGFR2-Fc is efficiently cleaved by wild-type and mutant granzyme B ... None of the protease variants (wild-type or mutant) cleave the Fc domain | 150 µM and 153 µM | 370 | 600 | 1100 | 0.15 s⁻¹ and 0.154 s⁻¹ | 1000 | 0.71 | Wild-type granzyme B and the listed muteins cleave the VEGFR-Fc receptor | 1.2 | 3300 | 0 | 0.0087 | 14 | 3.26 | 88 | 2.18 | Km [15]: 1500 µM and 1600 µM; Km [16]: 250 µM; Kcat [17]: 0.15 s⁻¹; Kcat/Km [17]: 99 M⁻¹ s⁻¹; kcat [17]: 0.15 s⁻¹; kcat/Km [17]: 99 M⁻¹ s⁻¹; Kcat [11]: 0.15 s⁻¹; Kcat/Km [11]: 1000 M⁻¹ s⁻¹; Kcat/Km [18]: 110 M⁻¹ s⁻¹; kcat/Km [18]: 110 M⁻¹ s⁻¹; Kcat [12]: 1.2 s⁻¹; Kcat/Km [12]: 3300 M⁻¹ s⁻¹; Kcat [14]: 0.096 s⁻¹; Kcat/Km [14]: 87 M⁻¹ s⁻¹; kcat [14]: 0.096 s⁻¹; Kcat [19]: 0.39 s⁻¹; Kcat/Km [19]: 1600 M⁻¹ s⁻¹
